# T1: Rhesus monkey glycophorin A on Rhesus monkey red blood cells (Rhesus monkey, UniProt A0A1D5Q349 20-150)
# T1 construct: whole, on cells; also called Rhesus RBC; monkey GPA
# T1 sequence: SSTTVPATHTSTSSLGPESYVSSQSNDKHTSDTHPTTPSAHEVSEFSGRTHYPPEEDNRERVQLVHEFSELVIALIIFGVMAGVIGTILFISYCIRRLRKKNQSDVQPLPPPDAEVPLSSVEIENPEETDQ
# T2: human glycophorin A in the red blood cell membrane (human, UniProt P02724 20-150)
# T2 construct: whole, on cells; used for intact RBC, isolated RBC membranes and transfected cells; the assay field tells which; also called GPA; hGPA
# T2 sequence (looked up): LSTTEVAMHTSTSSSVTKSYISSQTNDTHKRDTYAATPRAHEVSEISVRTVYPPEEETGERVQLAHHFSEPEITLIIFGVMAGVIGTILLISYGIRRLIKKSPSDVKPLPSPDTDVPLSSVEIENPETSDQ
# T3: purified human glycophorin A protein (Sigma, cat # G5017) (human, UniProt P02724 20-150)
# T3 construct: mature; also called Sigma hGPA; Sigma GPA
# T3 sequence (looked up): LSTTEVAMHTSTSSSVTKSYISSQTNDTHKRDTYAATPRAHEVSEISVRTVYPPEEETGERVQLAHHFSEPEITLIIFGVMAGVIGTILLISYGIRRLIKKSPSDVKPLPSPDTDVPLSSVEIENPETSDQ
# What was measured:
# [1] = molecular target: T1, Rhesus monkey glycophorin A on Rhesus …; assay: FACS, RBC Rh02
# [2] = molecular target: T4, Cynomolgus monkey glycophorin A on Cynomolgus monkey red blood cells (Cynomolgus monkey); assay: FACS, RBC Cy02
# T4 construct: whole, on cells; also called Cyno RBC; Cyno GPA
# Method: (§1) The binding of the humanized variants to intact red blood cells (RBC) from humans (Hu01 to 03; 3 individuals), Rhesus monkey (Rh01 to 03; 3 individuals) and Cynomolgus monkey (Cy01 to 02; 2 individuals) was measured by fluorescence activated cell sorting (FACS).
# [3] = molecular target: T4, Cynomolgus monkey glycophorin A on …; assay: FACS, RBC Cy01
# Method: as §1
# [4] = molecular target: T2, human glycophorin A in the red blood …; assay: FACS, RBC Hu01
# Method: as §1
# [5] = molecular target: T1, Rhesus monkey glycophorin A on Rhesus …; assay: FACS, RBC Rh03
# Method: as §1
# [6] = molecular target: T2, human glycophorin A in the red blood …; assay: FACS, RBC Hu03
# Method: as §1
# [7] = molecular target: T2, human glycophorin A in the red blood …; assay: FACS, RBC Hu02
# Method: as §1
# [8] = molecular target: T3, purified human glycophorin A protein …; assay: ELISA, IgG
# [9] = molecular target: T1, Rhesus monkey glycophorin A on Rhesus …; assay: FACS, RBC Rh01
# Method: as §1
fluorescence intensity [1],fluorescence intensity [2],fluorescence intensity [3],fluorescence intensity [4],fluorescence intensity [5],fluorescence intensity [6],fluorescence intensity [7],EC50 [8],fluorescence intensity [9],Binder
1400,1030,959,646,1410,484,393,10.4 nM,1480,"Hu6C12-12 (antibody, V domains shown, IgG format; VH.1c + Vk.1a) VH: EVQLVQSGAEVKKPGASVKVSCKASGYTFTTYTIHWVRQAPGQGLEWMGYINPSSDYTRYNPKFKDRVTMTTDTSTSTAYMELRSLRSDDTAVYYCQTGTRDYWGQGTTVTVSS VL: DIQLTQSPSFLSASVGDRVTITCSAASSVSYIYWYQQKPGKAPKLLIYSTSTLPSGVPSRFSGSGSGTEYTLTISSLQPEDFATYYCHQRNSFPFTFGQGTKLEIK"
1940,1430,1360,1230,1920,1100,945,1.78 nM,2060,"Hu6C12-7 (antibody, V domains shown, IgG format; VH.1g + Vk.1) VH: EVQLVQSGAEVKKPGASVKVSCKASGYTFTTYTIHWVRQAPGQGLEWIGYINPSSDYTRYNPKFKDRVTLTTDKSTSTAYMELRSLRSDDTAVYYCQTGTRDYWGQGTTVTVSS VL: DIQLTQSPSFLSASVGDRVTITCSAASSVSYIYWYQQKPGKAPKLLIYSTSTLPSGVPSRFSGSGSGTEFTLTISSLQPEDFATYYCHQRNSFPFTFGQGTKLEIK"
1520,1100,1060,909,1540,786,634,3.46 nM,1640,"Hu6C12-6 (antibody, V domains shown, IgG format; VH.1f + Vk.1) VH: EVQLVQSGAEVKKPGASVKVSCKASGYTFTTYTIHWVRQAPGQGLEWMGYINPSSDYTRYNPKFKDRVTLTTDTSTSTAYMELRSLRSDDTAVYYCQTGTRDYWGQGTTVTVSS VL: DIQLTQSPSFLSASVGDRVTITCSAASSVSYIYWYQQKPGKAPKLLIYSTSTLPSGVPSRFSGSGSGTEFTLTISSLQPEDFATYYCHQRNSFPFTFGQGTKLEIK"
1510,1240,1040,1630,1520,1440,1270,0.876 nM,1620,"Hu6C12-19 (antibody, V domains shown, IgG format; VH.1b + Vk.1b) VH: EVQLVQSGAEVKKPGASVKVSCKASGYTFTTYTIHWVRQAPGQGLEWMGYINPSSDYTRYNPKFKDRVTMTTDTSTSTAYMELRSLRSDDTAVYYCATGTRDYWGQGTTVTVSS VL: DIQLTQSPSFLSASVGDRVTITCSAASSVSYIYWFQQKPGKAPKLLIYSTSTLPSGVPSRFSGSGSGTEYTLTISSLQPEDFATYYCHQRNSFPFTFGQGTKLEIK"
1620,1250,1070,1670,1550,1460,1300,0.393 nM,1670,"Hu6C12-20 (antibody, V domains shown, IgG format; VH.1c + Vk.1b) VH: EVQLVQSGAEVKKPGASVKVSCKASGYTFTTYTIHWVRQAPGQGLEWMGYINPSSDYTRYNPKFKDRVTMTTDTSTSTAYMELRSLRSDDTAVYYCQTGTRDYWGQGTTVTVSS VL: DIQLTQSPSFLSASVGDRVTITCSAASSVSYIYWFQQKPGKAPKLLIYSTSTLPSGVPSRFSGSGSGTEYTLTISSLQPEDFATYYCHQRNSFPFTFGQGTKLEIK"
1860,1360,1270,895,1870,786,637,4.8 nM,2000,"Hu6C12-16 (antibody, V domains shown, IgG format; VH.1g + Vk.1a) VH: EVQLVQSGAEVKKPGASVKVSCKASGYTFTTYTIHWVRQAPGQGLEWIGYINPSSDYTRYNPKFKDRVTLTTDKSTSTAYMELRSLRSDDTAVYYCQTGTRDYWGQGTTVTVSS VL: DIQLTQSPSFLSASVGDRVTITCSAASSVSYIYWYQQKPGKAPKLLIYSTSTLPSGVPSRFSGSGSGTEYTLTISSLQPEDFATYYCHQRNSFPFTFGQGTKLEIK"

# The next lines start with the binder.
Binder,fluorescence intensity [1],fluorescence intensity [2],fluorescence intensity [3],fluorescence intensity [4],fluorescence intensity [5],fluorescence intensity [6],fluorescence intensity [7],EC50 [8],fluorescence intensity [9]
"Hu6C12-15 (antibody, V domains shown, IgG format; VH.1f + Vk.1a) VH: EVQLVQSGAEVKKPGASVKVSCKASGYTFTTYTIHWVRQAPGQGLEWMGYINPSSDYTRYNPKFKDRVTLTTDTSTSTAYMELRSLRSDDTAVYYCQTGTRDYWGQGTTVTVSS VL: DIQLTQSPSFLSASVGDRVTITCSAASSVSYIYWYQQKPGKAPKLLIYSTSTLPSGVPSRFSGSGSGTEYTLTISSLQPEDFATYYCHQRNSFPFTFGQGTKLEIK",1480,1070,1010,590,1490,482,375,9.69 nM,1520
"Hu6C12-3 (antibody, V domains shown, IgG format; VH.1c + Vk.1) VH: EVQLVQSGAEVKKPGASVKVSCKASGYTFTTYTIHWVRQAPGQGLEWMGYINPSSDYTRYNPKFKDRVTMTTDTSTSTAYMELRSLRSDDTAVYYCQTGTRDYWGQGTTVTVSS VL: DIQLTQSPSFLSASVGDRVTITCSAASSVSYIYWYQQKPGKAPKLLIYSTSTLPSGVPSRFSGSGSGTEFTLTISSLQPEDFATYYCHQRNSFPFTFGQGTKLEIK",1600,1200,1120,1070,1600,862,739,2.17 nM,1730
"Hu6C12-5 (antibody, V domains shown, IgG format; VH.1e + Vk.1) VH: EVQLVQSGAEVKKPGASVKVSCKASGYTFTTYTIHWVRQAPGQGLEWMGYINPSSDYTRYNPKFKDRVTLTTDTSTSTAYMELRSLRSDDTAVYYCATGTRDYWGQGTTVTVSS VL: DIQLTQSPSFLSASVGDRVTITCSAASSVSYIYWYQQKPGKAPKLLIYSTSTLPSGVPSRFSGSGSGTEFTLTISSLQPEDFATYYCHQRNSFPFTFGQGTKLEIK",1550,1140,1070,921,1560,758,625,8.45 nM,1660
"Hu6C12-2 (antibody, V domains shown, IgG format; VH.1b + Vk.1) VH: EVQLVQSGAEVKKPGASVKVSCKASGYTFTTYTIHWVRQAPGQGLEWMGYINPSSDYTRYNPKFKDRVTMTTDTSTSTAYMELRSLRSDDTAVYYCATGTRDYWGQGTTVTVSS VL: DIQLTQSPSFLSASVGDRVTITCSAASSVSYIYWYQQKPGKAPKLLIYSTSTLPSGVPSRFSGSGSGTEFTLTISSLQPEDFATYYCHQRNSFPFTFGQGTKLEIK",1400,1030,962,897,1380,716,603,8.65 nM,1530

# Source: US20190359687A1 (Bayer, published 2019)
